Reference: patent publication US20020062008A1
One block for each binder: values may come before it.

Experiments:
[1] = biological target: soluble human αd/CD18 leucine zipper heterodimer (human) (UniProt P05107); test: ELISA, CAM/Ig on αd/CD18LZ captured with 212D
[2] = biological target: LFA-1 leucine zipper fusion protein (soluble CD11a/CD18) (UniProt P20701); test: ELISA, CAM/Ig on captured soluble CD11a/CD18

- fold increase in signal above background [1]: 5 fold
B1: soluble VCAM-1/IgG1 fusion protein (seven extracellular immunoglobulin-like domains) (Fc fusion, UniProt P19320 25-698, looked up, not shown: a dimerising Fc or GST)
chain: FKIETTPESRYLAQIGDSVSLTCSTTGCESPFFSWRTQIDSPLNGKVTNEGTTSTLTMNPVSFGNEHSYLCTATCESRKLEKGIQVEIYSFPKDPEIHLSGPLEAGKPITVKCSVADVYPFDRLEIDLLKGDHLMKSQEFLEDADRKSLETKSLEVTFTPVIEDIGKVLVCRAKLHIDEMDSVPTVRQAVKELQVYISPKNTVISVNPSTKLQEGGSVTMTCSSEGLPAPEIFWSKKLDNGNLQHLSGNATLTLIAMRMEDSGIYVCEGVNLIGKNRKEVELIVQEKPFTVEISPGPRIAAQIGDSVMLTCSVMGCESPSFSWRTQIDSPLSGKVRSEGTNSTLTLSPVSFENEHSYLCTVTCGHKKLEKGIQVELYSFPRDPEIEMSGGLVNGSSVTVSCKVPSVYPLDRLEIELLKGETILENIEFLEDTDMKSLENKSLEMTFIPTIEDTGKALVCQAKLHIDDMEFEPKQRQSTQTLYVNVAPRDTTVLVSPSSILEEGSSVNMTCLSQGFPAPKILWSRQLPNGELQPLSENATLTLISTKMEDSGVYLCEGINQAGRSRKEVELIIQVTPKDIKLTAFPSESVKEGDTVIISCTCGNVPETWIILKKKAETGDTVLKSIDGAYTIRKAQLKDAGVYECESKNKVGSQLRSLTLDVQGRENNKDYFSPE

- fold above background [2]: 10 fold
B2: ICAM-2/Ig (Fc fusion, part only; not given: Ig portion, UniProt P13598 25-223, looked up, part only)
chain, part: KVFEVHVRPKKLAVEPKGSLEVNCSTTCNQPEVGGLETSLDKILLDEQAQWKHYLVSNISHDTVLQCHFTCSGKQESMNSNVSVYQPPRQVILTLQPTLVAVGKSFTIECRVPTVEPLDSLTLFLFRGNETLHYETFGKAAPAPQEATATFNSTADREDGHRNFSCLAVLDLMSRGGNIFHKHSAPKMLEIYEPVSDSQ
